What is called Kd is the equilibrium constant for the complex coming apart. A lower Kd goes with higher affinity.

The subject of assay [1] is H520 cells. Kind of assay: Cross reactivity: FACS binding to H520 cells (ENTPD3 and ENTPD8 expression). The arrangement: species or system human. As to conditions: 50 nM antibody. The method, then:
(§1) FACS screening: Specific binding of candidate antibodies to endogenously expressed ENTPD2 was assessed by flow cytometry. Cells were rinsed thoroughly with 1×PBS and treated with Accutase (Millipore #SCR005) to lift from growth plates and resuspended at approximately 1×10^5 cells/90 μL in 1× FACS buffer (2% FBS+0.1% NaN3 in PBS). In a 96-well U-bottom plate, 10 μL of 10× antibody solution in FACS buffer was pre-seeded and 90 μL of cell suspension was added. Cell were incubated for 30 minutes at 4° C., washed 1× with cold PBS and resuspended in 100 μL of 1:500 secondary antibody 1× FACS buffer (Allophycocyanin conjugated F(ab′)2 goat anti-human IgG, Fcγ specific; Jackson Immunoresearch, Cat#109-136-098). After additional incubation for 15 min at 4° C., cells were washed twice with PBS and resuspended in 100 μL of 1×FACS buffer with 4 μg/mL propidium iodide (Life Technologies, Cat#P3566). Geometric mean fluorescence intensity was calculated on live single cells using FlowJo software.
H520 cells were identified as a cancer cell line with ENTPD3 (Ct 25) and ENTPD8 (Ct 26) expression by Taqman and were used for selectivity screening.

The target of assay [2] is T1, Human ENTPD1 (Homo sapiens, UniProt P49961).
T1 construct: expressed in transfected cells; host or cells: NIH/3T3 (retroviral transduction, FACS-sorted)
T1 sequence (P49961 1-510): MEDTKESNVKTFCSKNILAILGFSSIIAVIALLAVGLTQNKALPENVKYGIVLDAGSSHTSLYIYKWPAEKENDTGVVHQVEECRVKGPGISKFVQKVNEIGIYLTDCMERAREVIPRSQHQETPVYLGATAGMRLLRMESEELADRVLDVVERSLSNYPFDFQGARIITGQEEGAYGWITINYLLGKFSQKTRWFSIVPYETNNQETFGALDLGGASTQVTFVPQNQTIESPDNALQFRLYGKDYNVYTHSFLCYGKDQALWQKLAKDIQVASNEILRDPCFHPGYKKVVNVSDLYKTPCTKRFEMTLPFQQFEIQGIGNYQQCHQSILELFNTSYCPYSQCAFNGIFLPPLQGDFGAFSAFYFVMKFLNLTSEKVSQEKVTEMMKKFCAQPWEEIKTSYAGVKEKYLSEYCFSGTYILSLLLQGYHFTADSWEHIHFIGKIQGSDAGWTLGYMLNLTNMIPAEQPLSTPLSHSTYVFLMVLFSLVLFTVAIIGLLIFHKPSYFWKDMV
The assay is described as follows: Cross reactivity: FACS binding to human ENTPD1 expressing NIH/3T3 cells. As to conditions: NIH/3T3-ENTPD1 cells, 50 nM antibody. The method, then: as §1
Cross reactivity Human ENTPD1 (NP_001767) expressing NIH/3T3 cells were generated using a retroviral transduction approach. 72 hrs post transduction, engineered cells were stained with the anti-Human CD39/ENTPD1 APC-conjugated Antibody (R&D systems, Minneapolis, Minn.) and live cells that expressed human ENTPD1 were separated from the rest of the population via fluorescence activated cell sorting. […]
A general note: In flow cytometry, cells or beads pass a laser one at a time.

Assay [3] deals with cynomologus (cyno) ENTPD2. Kind of assay: Biacore (SPR) affinity to cyno ENTPD2 ECD. As to conditions: 25° C. It is filed as binding, cynomolgus monkey. Put shortly:
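Antibodies captured via anti-human IgG Fc on CM5 chips; ENTPD2 ECD analyte associated 180 s, dissociated up to 1800 s at 30 μL/min in PBS pH 7.2 + 0.05% Tween 20. Kinetic constants from global 1:1 binding fit; fresh antibody captured after MgCl2 regeneration.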

Sequence of cynomologus (cyno) ENTPD2 (as listed by the source): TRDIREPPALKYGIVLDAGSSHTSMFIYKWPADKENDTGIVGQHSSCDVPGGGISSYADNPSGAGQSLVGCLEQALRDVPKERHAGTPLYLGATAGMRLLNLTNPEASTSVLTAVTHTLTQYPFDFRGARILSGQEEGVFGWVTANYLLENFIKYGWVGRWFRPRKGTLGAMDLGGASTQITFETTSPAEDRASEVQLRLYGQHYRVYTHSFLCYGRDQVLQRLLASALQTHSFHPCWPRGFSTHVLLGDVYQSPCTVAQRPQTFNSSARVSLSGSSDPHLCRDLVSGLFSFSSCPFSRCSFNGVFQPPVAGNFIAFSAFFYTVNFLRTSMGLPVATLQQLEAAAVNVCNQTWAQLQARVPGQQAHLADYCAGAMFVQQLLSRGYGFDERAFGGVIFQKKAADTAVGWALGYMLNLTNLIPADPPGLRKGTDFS

B1: mAb7: humanized anti-human ENTPD2 antibody from mAb17; VH SEQ ID NO: 25, VL SEQ ID NO: 78 (antibody, V domains shown)
VH: QVQLVQSGAEVVKPGASVKISCKASGYTFTDYNMDWVKQAPGQRLEWIGDINPKYDISTYNQQFKGKATITVDKSASTAYMELSSLRSEDTAVYYCARRGFFLYYGINYYYFDVWGQGTLVTVSS
VL: EIVLTQSPATLSASPGEEITLSCSASSSVSYIHWYQQKPGQAPRLLIYSTSNLASGIPARFSGSGSGTFYTLTISSVEPEDAAVYYCHQWSSYPWTFGGGTKLEIK
B1: the “Apparent FACS binding at 50 nM” value in assay [1] is listed as “No binding”. Also, the “Apparent FACS binding at 50 nM” value in assay [2] is recorded as “No binding”. Further, in assay [3], the dissociation constant (Kd) came to 1.1 nM, the ka came to 1.2e+06 M⁻¹ s⁻¹ and the kd was determined as 0.0012 s⁻¹.

The values are drawn from patent publication US20220348651A1, “ENTPD2 ANTIBODIES, COMBINATION THERAPIES, AND METHODS OF USING THE ANTIBODIES AND COMBINATION THERAPIES” (Novartis AG, priority 2019, published 2022).
